Data: patent US20240082434A1

Target: CA1.CD2 PEGylated with P40 (rat)
Experiment: Western blot; PEGylated (P40) against unmodified CA1.CD2

decrease of binding against unPEGylated CA1.CD2: 50%
Substance: antibody OX34
